Molecular target: T1, GST-tagged Shu (Shu-GST) (Drosophila, UniProt Q9W1I9 1-455)
T1 sequence (looked up): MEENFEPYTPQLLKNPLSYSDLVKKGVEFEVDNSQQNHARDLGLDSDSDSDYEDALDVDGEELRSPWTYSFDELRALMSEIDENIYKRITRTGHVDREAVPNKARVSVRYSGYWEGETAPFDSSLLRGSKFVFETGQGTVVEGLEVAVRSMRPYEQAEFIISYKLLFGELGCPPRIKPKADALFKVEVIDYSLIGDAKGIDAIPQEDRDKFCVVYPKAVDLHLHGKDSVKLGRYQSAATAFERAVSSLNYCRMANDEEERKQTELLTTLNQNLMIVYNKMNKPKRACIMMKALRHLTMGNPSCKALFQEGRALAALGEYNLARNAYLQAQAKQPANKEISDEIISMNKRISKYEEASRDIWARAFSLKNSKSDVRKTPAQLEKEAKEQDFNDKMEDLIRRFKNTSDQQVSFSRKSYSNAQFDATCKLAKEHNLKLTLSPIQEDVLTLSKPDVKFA
Experiment: pull-down

pull-down efficiency relative to Armi WT: ~1.5 fold
B1: FLAG-tagged Armi S769I mutant, recombinant (natural protein, Drosophila, UniProt Q6J5K9 1-1188, looked up)
chain: MFTYVSKFFTNPDRNREDILESLDRENSFLDQKLMEEKMDQQLKANPNEINGVLSNKIAELTHGLSEMDVSKESSCTARKGVITSLDGDRGVIDKDVLFETKVAEDIILDLHVGCVVEYLTFTTGEAMRVVKVKSILEHSWEDTSQKEIEKAVDNLKNEKPTFFNTETRSVLGLISQRLASSIDVETEYGQLTVELDNIEMNFIPTNGDRVRLECNIQLDDGFVDKQGEILEVTKLFPTRIQEGEKCIVERVYVHMVVLGPETYILKTDLPTGTDLHLGDIVLADLIECQYSKFTRRAIKITPLEKNFGATKLTQQSSMGSSGSGKAVTVTGVNRFITAELWQKESVSLKLTNNLNRTLRLESITVCNDSESQLSVVSPLESKEISSGSEITVTFEIHTQFLGEAIEKYVLNFDLLKVRRVFTVIVCKTKEEVAEAEKRMIAAEALMAPGRNSQERSRFYANQVWCNKVDVIPGQQIVTKRRFVALRLGCFEVPKELRQICLTSERRQEMIKAIEQHYSFLTEPLSIKTYMHRFRLLLHLEEIECFVNFRNYDRDRAHFLRDGEFLTLQIENLAERRPSLVIGDTLRVINPWSDPDSQTTKSYEGIIHKVLFDRILLKFHSSFQEKYNGEDYRLEFYFSRYSFRKQHHAISKIVGVMGEDFLFPSKVTKRENPQLDVYMKDDDMYLYDSKLEWYNQSLNSIQKRAVFNILRGEAENIPYVLFGPPGSGKTMTLIETLLQLVRNLPGARILVGTPSNSSADLVTKRLIDIKALLQGDFIRLVSYNQVEKDLIPPEIMSYCATSDVGAVGSCEDKMMVTESGLKLRCQAKFIGTHRITISTCTTLGNFLQLGFPAGHFTHVLFDEAGQCTEPETMVPIVMLTKKRSQVVLSGDPRQLQSIVTSRIASKMGFSISFLERLLERSPYRKDLQRFPESSGYNPLVLTKLLYNYRALPSIMSIYSRLFYDDELIPVLSEKDSRESRLLSKLRCVFESEKDIPQAHGTFFYGIIGENRQNNDSPSWFNPQEVREVFLMTIALYRANVTADQIGIITPYQKQVKMLRSMFIGTDVVMPKIGSVEEFQGQERDIILISTVRSSEEILRMDARFSLGFVRCSKRLNVAVSRARAMMIIFGNPHLLAVDECWRQLILFCVKNNAYFGCDLPQMVINQKDEVPVCLETFVPSLNTTDDLN
